This note sets out measurements from paper PMC4938799, “LD Motif Recognition by Talin: Structure of the Talin-DLC1 Complex” (Structure(London, England:1993), 2016).

The test concerns paxillin-DDK. Put plainly: GST pull-down of transfected paxillin-DDK in 293 cells. Format: cell-based, human. An excerpt: To investigate whether the biological effects of GST-R8 might be partly mediated via paxillin, we first confirmed that endogenous paxillin is expressed in cell lines A549, H358, and 293T (Figure S6A). […] As a positive control, HEK293 cells were co-transfected with a paxillin-DDK construct (OriGene) and GST-R8 (wild-type, R1544E and 2E mutants), followed by a GST pull-down assay.
Figure S6, related to figure 5. Binding of GST-talin R8 to endogenous paxillin is undetectable in A549 and H358 cells.
(A) The expression of endogenous paxillin in cell lines. Cell extracts were assayed by immunoblotting with anti-paxillin antibody. […]
NMR Spectroscopy - Spectra were processed with TopSpin (Bruker) and analysed using CCPN Analysis (Vranken et al., 2005). […] The changes in chemical shift of 15N-talin R8 domain were calculated from 1H,15N-HSQC spectra as Δδ=√(ΔδH2+(ΔδN*0.15)2). […]
Dissociation constants were evaluated from the 1H,15N-HSQC chemical shift changes in the titration experiments conducted using 0.1 mM 15N-talin R8 domain. […]
Concentrations of the DLC1 and RIAM peptides were determined from UV absorbance at 280 nm.
Concentrations of the paxillin peptide that lacks UV-active aromatic residues was determined by NMR from the comparison of the integral intensities of the well-separated signals of the methyl groups of the paxillin and RIAM peptides following the Eretic2 procedure of TopSpin (Bruker). […]

B1: GST-R8: GST-tagged talin R8, amino acids 1,453–1,580 (protein)
chain: NSQAGQQGLVEPTQFARANQAIQMACQSLGEPGCTQAQVLSAATIVAKHTSALCNSCRLASARTANPTAKRQFVQSAKEVANSTANLVKTIKALDGDFTEENRAQCRAATAPLLEAVDNLSAFASNPE
modifications: left off: GST, end not stated, kept
For B1, the “binding of paxillin-DDK” value is, setting by setting: (293 cells co-transfected with paxillin-DDK and GST-R8, listed as GST-talin R8 wt) “formed a complex”; (293 cells co-transfected with paxillin-DDK and GST-R8, listed as wild-type GST-R8) “did bind paxillin-DDK, and did so more efficiently than 2E GST-R8 talin mutant”.
